Laboratory results from patent US20160272693A1 (ZEALAND PHARMA A S, published 2016).
*1 amine or outer side, *2 acyl side, *3 side chain or, on linkers, in order; H or OH if unused. Bridges are numbered along the chain shown (N, C = ends). [ ]: non-standard residue; d: D form. The star is where a group is joined. C20 diacid = O=C(O)CCCCCCCCCCCCCCCCCCC(=O)*; γGlu = O=C(O)[C@H](CCC(=O)[*:2])N[*:1]; Hyp = O=C(O)[C@@H]1C[C@@H](O)CN1; NMeI = CC[C@H](C)[C@H](NC)C(=O)O; Sar = CNCC(=O)O

T1: human amylin receptor 3 (hAMYR3), hCTR2 co-expressed with human receptor activity modifying protein 3 (hRAMP3) (human, UniProt P30988 25-474; O60896 24-148)
T1 sequence (looked up) 1: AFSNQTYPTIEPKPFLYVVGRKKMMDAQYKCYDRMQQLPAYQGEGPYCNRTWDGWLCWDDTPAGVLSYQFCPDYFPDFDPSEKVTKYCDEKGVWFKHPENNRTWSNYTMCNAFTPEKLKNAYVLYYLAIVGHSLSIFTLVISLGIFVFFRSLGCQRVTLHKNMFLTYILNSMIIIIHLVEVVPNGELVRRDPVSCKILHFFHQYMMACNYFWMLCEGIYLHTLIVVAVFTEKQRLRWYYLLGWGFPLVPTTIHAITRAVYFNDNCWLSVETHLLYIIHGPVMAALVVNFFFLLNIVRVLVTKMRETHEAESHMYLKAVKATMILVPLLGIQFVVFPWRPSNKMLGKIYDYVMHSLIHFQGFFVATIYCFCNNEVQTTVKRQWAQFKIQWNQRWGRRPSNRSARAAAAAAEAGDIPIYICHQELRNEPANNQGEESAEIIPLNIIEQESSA
T1 sequence (looked up) 2: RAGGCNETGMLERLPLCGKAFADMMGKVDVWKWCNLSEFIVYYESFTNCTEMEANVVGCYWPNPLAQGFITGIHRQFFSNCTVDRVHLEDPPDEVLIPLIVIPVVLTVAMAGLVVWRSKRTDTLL


These binders were tested against T1, human amylin receptor 3 (hAMYR3), hCTR2 … (assay: cell-based or functional assay).

hAMYR3 EC50 (nM); cAMP induction [nM]	Binder
0.12	{C20 diacid}-[γGlu]RCGTATCATERLAHFLNRSSF[Sar]A[NMeI]LSSTEVGSST[Hyp]-NH2 (disulfide 3-8; SMILES CC[C@H](C)[C@@H](C(=O)N[C@@H](CC(C)C)C(=O)N[C@@H](CO)C(=O)N[C@@H](CO)C(=O)N[C@H](C(=O)N[C@@H](CCC(=O)O)C(=O)N[C@H](C(=O)NCC(=O)N[C@@H](CO)C(=O)N[C@@H](CO)C(=O)N[C@H](C(=O)N1C[C@H](O)C[C@H]1C(N)=O)[C@@H](C)O)C(C)C)[C@@H](C)O)N(C)C(=O)[C@H](C)NC(=O)CN(C)C(=O)[C@H](Cc1ccccc1)NC(=O)[C@H](CO)NC(=O)[C@H](CO)NC(=O)[C@H](CCCNC(=N)N)NC(=O)[C@H](CC(N)=O)NC(=O)[C@H](CC(C)C)NC(=O)[C@H](Cc1ccccc1)NC(=O)[C@H](Cc1c[nH]cn1)NC(=O)[C@H](C)NC(=O)[C@H](CC(C)C)NC(=O)[C@H](CCCNC(=N)N)NC(=O)[C@H](CCC(=O)O)NC(=O)[C@@H](NC(=O)[C@H](C)NC(=O)[C@@H]1CSSC[C@H](NC(=O)[C@H](CCCNC(=N)N)NC(=O)CC[C@H](NC(=O)CCCCCCCCCCCCCCCCCCC(=O)O)C(=O)O)C(=O)NCC(=O)N[C@@H]([C@@H](C)O)C(=O)N[C@@H](C)C(=O)N[C@@H]([C@@H](C)O)C(=O)N1)[C@@H](C)O) [[19CD]-isoGlu-R-C( )-GTAT-C( )-ATERLAHFLNRSSF-Gly(Me)-A-Ile(Me)-LSSTEVGSST-Hyp-NH2 (Compd. 29)]
0.13	{C20 diacid}-[γGlu]RCPTATCATDRLAHFLVRSSF[Sar]A[NMeI]LSSTDVGSDTP-NH2 (disulfide 3-8; SMILES CC[C@H](C)[C@@H](C(=O)N[C@@H](CC(C)C)C(=O)N[C@@H](CO)C(=O)N[C@@H](CO)C(=O)N[C@H](C(=O)N[C@@H](CC(=O)O)C(=O)N[C@H](C(=O)NCC(=O)N[C@@H](CO)C(=O)N[C@@H](CC(=O)O)C(=O)N[C@H](C(=O)N1CCC[C@H]1C(N)=O)[C@@H](C)O)C(C)C)[C@@H](C)O)N(C)C(=O)[C@H](C)NC(=O)CN(C)C(=O)[C@H](Cc1ccccc1)NC(=O)[C@H](CO)NC(=O)[C@H](CO)NC(=O)[C@H](CCCNC(=N)N)NC(=O)[C@@H](NC(=O)[C@H](CC(C)C)NC(=O)[C@H](Cc1ccccc1)NC(=O)[C@H](Cc1c[nH]cn1)NC(=O)[C@H](C)NC(=O)[C@H](CC(C)C)NC(=O)[C@H](CCCNC(=N)N)NC(=O)[C@H](CC(=O)O)NC(=O)[C@@H](NC(=O)[C@H](C)NC(=O)[C@@H]1CSSC[C@H](NC(=O)[C@H](CCCNC(=N)N)NC(=O)CC[C@H](NC(=O)CCCCCCCCCCCCCCCCCCC(=O)O)C(=O)O)C(=O)N2CCC[C@H]2C(=O)N[C@@H]([C@@H](C)O)C(=O)N[C@@H](C)C(=O)N[C@@H]([C@@H](C)O)C(=O)N1)[C@@H](C)O)C(C)C) [[19CD]-isoGlu-R-C( )-PTAT-C( )-ATDRLAHFLVRSSF-Gly(Me)-A-Ile(Me)-LSSTDVGSDTP-NH2 (Compd. 23)]
0.12	{C20 diacid}-[γGlu]RCGTATCATERLAHFLHRSSF[Sar]A[NMeI]LSSTEVGSETP-NH2 (disulfide 3-8; SMILES CC[C@H](C)[C@@H](C(=O)N[C@@H](CC(C)C)C(=O)N[C@@H](CO)C(=O)N[C@@H](CO)C(=O)N[C@H](C(=O)N[C@@H](CCC(=O)O)C(=O)N[C@H](C(=O)NCC(=O)N[C@@H](CO)C(=O)N[C@@H](CCC(=O)O)C(=O)N[C@H](C(=O)N1CCC[C@H]1C(N)=O)[C@@H](C)O)C(C)C)[C@@H](C)O)N(C)C(=O)[C@H](C)NC(=O)CN(C)C(=O)[C@H](Cc1ccccc1)NC(=O)[C@H](CO)NC(=O)[C@H](CO)NC(=O)[C@H](CCCNC(=N)N)NC(=O)[C@H](Cc1c[nH]cn1)NC(=O)[C@H](CC(C)C)NC(=O)[C@H](Cc1ccccc1)NC(=O)[C@H](Cc1c[nH]cn1)NC(=O)[C@H](C)NC(=O)[C@H](CC(C)C)NC(=O)[C@H](CCCNC(=N)N)NC(=O)[C@H](CCC(=O)O)NC(=O)[C@@H](NC(=O)[C@H](C)NC(=O)[C@@H]1CSSC[C@H](NC(=O)[C@H](CCCNC(=N)N)NC(=O)CC[C@H](NC(=O)CCCCCCCCCCCCCCCCCCC(=O)O)C(=O)O)C(=O)NCC(=O)N[C@@H]([C@@H](C)O)C(=O)N[C@@H](C)C(=O)N[C@@H]([C@@H](C)O)C(=O)N1)[C@@H](C)O) [[19CD]-isoGlu-R-C( )-GTAT-C( )-ATERLAHFLHRSSF-Gly(Me)-A-Ile(Me)-LSSTEVGSETP-NH2 (Compd. 26)]
0.16	{C20 diacid}-[γGlu]RCPTATCATDRLAHFLHRSSF[Sar]A[NMeI]LSSTDVGSDTP-NH2 (disulfide 3-8; SMILES CC[C@H](C)[C@@H](C(=O)N[C@@H](CC(C)C)C(=O)N[C@@H](CO)C(=O)N[C@@H](CO)C(=O)N[C@H](C(=O)N[C@@H](CC(=O)O)C(=O)N[C@H](C(=O)NCC(=O)N[C@@H](CO)C(=O)N[C@@H](CC(=O)O)C(=O)N[C@H](C(=O)N1CCC[C@H]1C(N)=O)[C@@H](C)O)C(C)C)[C@@H](C)O)N(C)C(=O)[C@H](C)NC(=O)CN(C)C(=O)[C@H](Cc1ccccc1)NC(=O)[C@H](CO)NC(=O)[C@H](CO)NC(=O)[C@H](CCCNC(=N)N)NC(=O)[C@H](Cc1c[nH]cn1)NC(=O)[C@H](CC(C)C)NC(=O)[C@H](Cc1ccccc1)NC(=O)[C@H](Cc1c[nH]cn1)NC(=O)[C@H](C)NC(=O)[C@H](CC(C)C)NC(=O)[C@H](CCCNC(=N)N)NC(=O)[C@H](CC(=O)O)NC(=O)[C@@H](NC(=O)[C@H](C)NC(=O)[C@@H]1CSSC[C@H](NC(=O)[C@H](CCCNC(=N)N)NC(=O)CC[C@H](NC(=O)CCCCCCCCCCCCCCCCCCC(=O)O)C(=O)O)C(=O)N2CCC[C@H]2C(=O)N[C@@H]([C@@H](C)O)C(=O)N[C@@H](C)C(=O)N[C@@H]([C@@H](C)O)C(=O)N1)[C@@H](C)O) [[19CD]-isoGlu-R-C( )-PTAT-C( )-ATDRLAHFLHRSSF-Gly(Me)-A-Ile(Me)-LSSTDVGSDTP-NH2 (Compd. 27)]
0.13	{C20 diacid}-[γGlu]RCGTATCATERLAHFLQRSSF[Sar]A[NMeI]LSSTEVGSST[Hyp]-NH2 (disulfide 3-8; SMILES CC[C@H](C)[C@@H](C(=O)N[C@@H](CC(C)C)C(=O)N[C@@H](CO)C(=O)N[C@@H](CO)C(=O)N[C@H](C(=O)N[C@@H](CCC(=O)O)C(=O)N[C@H](C(=O)NCC(=O)N[C@@H](CO)C(=O)N[C@@H](CO)C(=O)N[C@H](C(=O)N1C[C@H](O)C[C@H]1C(N)=O)[C@@H](C)O)C(C)C)[C@@H](C)O)N(C)C(=O)[C@H](C)NC(=O)CN(C)C(=O)[C@H](Cc1ccccc1)NC(=O)[C@H](CO)NC(=O)[C@H](CO)NC(=O)[C@H](CCCNC(=N)N)NC(=O)[C@H](CCC(N)=O)NC(=O)[C@H](CC(C)C)NC(=O)[C@H](Cc1ccccc1)NC(=O)[C@H](Cc1c[nH]cn1)NC(=O)[C@H](C)NC(=O)[C@H](CC(C)C)NC(=O)[C@H](CCCNC(=N)N)NC(=O)[C@H](CCC(=O)O)NC(=O)[C@@H](NC(=O)[C@H](C)NC(=O)[C@@H]1CSSC[C@H](NC(=O)[C@H](CCCNC(=N)N)NC(=O)CC[C@H](NC(=O)CCCCCCCCCCCCCCCCCCC(=O)O)C(=O)O)C(=O)NCC(=O)N[C@@H]([C@@H](C)O)C(=O)N[C@@H](C)C(=O)N[C@@H]([C@@H](C)O)C(=O)N1)[C@@H](C)O) [[19CD]-isoGlu-R-C( )-GTAT-C( )-ATERLAHFLQRSSF-Gly(Me)-A-Ile(Me)-LSSTEVGSST-Hyp-NH2 (Compd. 28)]
0.19	{C20 diacid}-[γGlu]RCNTATCATQRLAHFLVRSSF[Sar]A[NMeI]LSSTEVGSETP-NH2 (disulfide 3-8; SMILES CC[C@H](C)[C@@H](C(=O)N[C@@H](CC(C)C)C(=O)N[C@@H](CO)C(=O)N[C@@H](CO)C(=O)N[C@H](C(=O)N[C@@H](CCC(=O)O)C(=O)N[C@H](C(=O)NCC(=O)N[C@@H](CO)C(=O)N[C@@H](CCC(=O)O)C(=O)N[C@H](C(=O)N1CCC[C@H]1C(N)=O)[C@@H](C)O)C(C)C)[C@@H](C)O)N(C)C(=O)[C@H](C)NC(=O)CN(C)C(=O)[C@H](Cc1ccccc1)NC(=O)[C@H](CO)NC(=O)[C@H](CO)NC(=O)[C@H](CCCNC(=N)N)NC(=O)[C@@H](NC(=O)[C@H](CC(C)C)NC(=O)[C@H](Cc1ccccc1)NC(=O)[C@H](Cc1c[nH]cn1)NC(=O)[C@H](C)NC(=O)[C@H](CC(C)C)NC(=O)[C@H](CCCNC(=N)N)NC(=O)[C@H](CCC(N)=O)NC(=O)[C@@H](NC(=O)[C@H](C)NC(=O)[C@@H]1CSSC[C@H](NC(=O)[C@H](CCCNC(=N)N)NC(=O)CC[C@H](NC(=O)CCCCCCCCCCCCCCCCCCC(=O)O)C(=O)O)C(=O)N[C@@H](CC(N)=O)C(=O)N[C@@H]([C@@H](C)O)C(=O)N[C@@H](C)C(=O)N[C@@H]([C@@H](C)O)C(=O)N1)[C@@H](C)O)C(C)C) [[19CD]-isoGlu-R-C( )-NTAT-C( )-ATQRLAHFLVRSSF-Gly(Me)-A-Ile(Me)-LSSTEVGSETP-NH2 (Compd. 24)]
0.094	{C20 diacid}-[γGlu]RCPTATCATDRLAHFLHRSSF[Sar]A[NMeI]LSSTDVGSNTP-NH2 (disulfide 3-8; SMILES CC[C@H](C)[C@@H](C(=O)N[C@@H](CC(C)C)C(=O)N[C@@H](CO)C(=O)N[C@@H](CO)C(=O)N[C@H](C(=O)N[C@@H](CC(=O)O)C(=O)N[C@H](C(=O)NCC(=O)N[C@@H](CO)C(=O)N[C@@H](CC(N)=O)C(=O)N[C@H](C(=O)N1CCC[C@H]1C(N)=O)[C@@H](C)O)C(C)C)[C@@H](C)O)N(C)C(=O)[C@H](C)NC(=O)CN(C)C(=O)[C@H](Cc1ccccc1)NC(=O)[C@H](CO)NC(=O)[C@H](CO)NC(=O)[C@H](CCCNC(=N)N)NC(=O)[C@H](Cc1c[nH]cn1)NC(=O)[C@H](CC(C)C)NC(=O)[C@H](Cc1ccccc1)NC(=O)[C@H](Cc1c[nH]cn1)NC(=O)[C@H](C)NC(=O)[C@H](CC(C)C)NC(=O)[C@H](CCCNC(=N)N)NC(=O)[C@H](CC(=O)O)NC(=O)[C@@H](NC(=O)[C@H](C)NC(=O)[C@@H]1CSSC[C@H](NC(=O)[C@H](CCCNC(=N)N)NC(=O)CC[C@H](NC(=O)CCCCCCCCCCCCCCCCCCC(=O)O)C(=O)O)C(=O)N2CCC[C@H]2C(=O)N[C@@H]([C@@H](C)O)C(=O)N[C@@H](C)C(=O)N[C@@H]([C@@H](C)O)C(=O)N1)[C@@H](C)O) [[19CD]-isoGlu-R-C( )-PTAT-C( )-ATDRLAHFLHRSSF-Gly(Me)-A-Ile(Me)-LSSTDVGSNTP-NH2 (Compd. 25)]
